“And” between values parts separate entries of the source, which are not always exact repeats. Equal values may be shown once. Blank lines part the entries; values can stand above or below the binder they belong to.
Key:
[1] = target: mouse CTLA4-Fc fusion protein (mouse) (UniProt P09793); assay: ELISA, binding to plate-bound mouse CTLA4-Fc
mouse CTLA4-Fc (mouse) [2] = target: mouse CTLA4-Fc (mouse) (UniProt P09793); assay: ELISA on coated target; binder 0 (background)
[3] = target: human CTLA-4Fc mutant protein M11 (human); assay: ELISA on coated target; binder 0 (background)
Chain of human CTLA-4Fc mutant protein M11 (human) (chain, as listed by the source mutant limits assumed): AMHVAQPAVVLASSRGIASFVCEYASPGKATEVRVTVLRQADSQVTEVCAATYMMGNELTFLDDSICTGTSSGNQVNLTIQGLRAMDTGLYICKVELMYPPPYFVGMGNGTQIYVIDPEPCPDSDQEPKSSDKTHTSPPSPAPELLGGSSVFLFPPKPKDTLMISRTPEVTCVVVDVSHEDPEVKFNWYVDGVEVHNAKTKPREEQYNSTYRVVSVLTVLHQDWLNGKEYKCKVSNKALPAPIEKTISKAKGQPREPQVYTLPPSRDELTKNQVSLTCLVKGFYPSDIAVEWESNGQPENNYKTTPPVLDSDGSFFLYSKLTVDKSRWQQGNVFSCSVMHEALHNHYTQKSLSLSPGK

mouse CTLA4-Fc (mouse) [4] = target: mouse CTLA4-Fc (mouse) (UniProt P09793); assay: ELISA on coated target; binder 10 ng/ml
[5] = target: human CTLA-4Fc mutant protein M11 (human); assay: ELISA on coated target; binder 10 ng/ml
mouse CTLA4-Fc (mouse) [6] = target: mouse CTLA4-Fc (mouse) (UniProt P09793); assay: ELISA on coated target; binder 100 ng/ml
[7] = target: human CTLA-4Fc mutant protein M11 (human); assay: ELISA on coated target; binder 100 ng/ml
mouse CTLA4-Fc (mouse) [8] = target: mouse CTLA4-Fc (mouse) (UniProt P09793); assay: ELISA on coated target; binder 1000 ng/ml
[9] = target: human CTLA-4Fc mutant protein M11 (human); assay: ELISA on coated target; binder 1000 ng/ml

EC50 (read off the curve) [1]: 1 µg/mL
B1: anti-mouse CTLA4 mAb 9H10 (antibody, from another filing)
scFv: YPYDVPDYAGAQPARSDIVMTQSPSSLAVSVGEKVTISCKSSQSLLYGSSHYLAWYQQKVGQSPKLLIYWASTRHTGIPDRFIGSGSGTDFTLSLSSVQAEDMADYFCQQYFSTPWTFGAGTRVEIKSGSGGGSGGGSGGGSQVQLLQSESELVKPGASVKLSCKTSGYTFTDYYIHWVKQKPGQGLEWIGLINPNNDGTNYNQKFQGKATLTADKSSSTAYMELNSLTFDDSVIYFCARASSRLRMARTTSDYYAMDYWGQGIQVTVSSVDSSGSGGCKPCICTVPEVSSVFIFPPKPKDVLTITLTPKVTCVVVDISKDDPEVQFSWFVDDVEVHTAQTQPREEQFNSTFRSVSELPIMHQDWLNGKEFKCRVNSAAFPAPIEKTISKTKGRPKAPQVYTIPPPKEQMAKDKVSLTCMITDFFPEDITVEWQWNGQPAENYKNTQPIMDTDGSYFVYSKLNVQKSNWEAGNTFTCSVLHEGLHNHHTEKSLSHSPGK

OD450 (mouse CTLA4-Fc (mouse) [2]): 0.19 OD and 0.189 OD | OD450 [3]: 0.171 OD and 0.155 OD | OD450 (mouse CTLA4-Fc (mouse) [4]): 0.201 OD and 0.18 OD | OD450 [5]: 0.19 OD and 0.194 OD | OD450 (mouse CTLA4-Fc (mouse) [6]): 0.303 OD and 0.314 OD | OD450 [7]: 0.752 OD and 0.746 OD | OD450 (mouse CTLA4-Fc (mouse) [8]): 0.942 OD and 0.94 OD | OD450 [9]: 2.89 OD and 2.91 OD
B2: chimeric L3D10 antibody (antibody, V domains shown)
VH: QVQLKESGPGLVAPSQSLSITCTVSGFSLTSYGLSWVRQPPGKGLEWLGVIWYDGNTNFHSALISRLTISKDNSKSQVFLELNSLQTDDTATYYCAKTEGHYYGSNYGYYALDYWGQGTSVTVSS
VL: DIQMTQSPASLSVSVGETVTITCRASENIYSNLAWYQQKQGKSPQLLVYAATNLADGVPSRFSGSGSGTQYSLKINSLQSEDFGTYFCQHLWGTPYTFGGGTKLEIKR
modifications: biotinylated (sites not given)

From US20190127468A1
